Consider two molecules from patent US20220324993A1 (EXCELMAB, published 2022).

In assay [1] the target is T1, CD20 on Raji cells (CD20+/CD3-) (human, UniProt P11836 1-297).
T1 sequence (looked up): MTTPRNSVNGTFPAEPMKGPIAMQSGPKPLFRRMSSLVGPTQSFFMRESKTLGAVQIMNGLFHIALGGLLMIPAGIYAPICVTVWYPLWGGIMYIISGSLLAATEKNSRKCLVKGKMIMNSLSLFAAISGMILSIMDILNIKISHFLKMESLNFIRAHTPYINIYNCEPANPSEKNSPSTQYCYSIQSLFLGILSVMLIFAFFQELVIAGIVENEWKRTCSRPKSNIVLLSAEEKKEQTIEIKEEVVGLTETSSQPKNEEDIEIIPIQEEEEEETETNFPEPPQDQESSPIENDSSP
Briefly: cell-based or functional assay.

In assay [2] the target is T2, CD3 antigen: 1:1 mixture of human CD3 e protein and human CD3 d protein (Sino Biological Inc.) (human, UniProt P07766 23-126; P04234 22-105).
T2 construct: Bought recombinant proteins, mixed 1:1 and coated on the ELISA plate; also called antigen CD3
T2 sequence (P07766 23-126 limits assumed, chain 1 of 2): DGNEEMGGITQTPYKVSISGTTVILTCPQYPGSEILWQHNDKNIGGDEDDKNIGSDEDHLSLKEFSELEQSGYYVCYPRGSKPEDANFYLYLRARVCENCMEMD
T2 sequence (P04234 22-105 limits assumed, chain 2 of 2): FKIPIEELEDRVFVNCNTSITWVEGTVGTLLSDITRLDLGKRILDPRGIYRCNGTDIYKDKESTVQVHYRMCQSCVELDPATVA
Nature of the assay: ELISA, CD3 e/d mixture coated, anti-human IgG-HRP detection. The procedure: 4) Addition of Samples: the bispecific antibody sample was diluted with PBS to 10 μg/ml and then subjected to a 4-fold gradient dilution at a total of eight concentrations. The diluted samples were added at 100 μL/well, and two replicate wells were used for each antibody concentration. The reaction wells were sealed with a plate sealing film and incubated at room temperature for 1.5 hours. The plate was washed 5 times with 0.05% PBST.
5) Addition of Secondary Antibody: HRP-labeled Goat Anti-Human IgG (H+L) (purchased from Proteintech company, product catalog No. SA00001-17) was diluted with PBS at a ratio of 1:2000 and added in a volume of 100 μL to each well. The reaction wells were sealed with a plate sealing film and incubated at room temperature for 1 hour. The plate was washed 5 times with 0.05% PBST.
7) Stopping: 50 μL of a stop solution (1 M HCl) was added to each well to stop the chromogenic reaction. After 3 min, the OD value of the reaction solution in each well was read at 450 nm on a microplate reader.

Changes are numbered by the printed parent chain. Names may count otherwise.

B1: CD20×CD3 BsAb V1 (bispecific antibody, human IgG1, kappa, L234A L235A)
heavy 1: EVQLVESGGGLVQPGRSLRLSCAASGFTFNDYAMHWVRQAPGKGLEWVSTISWNSGSIGYADSVKGRFTISRDNAKKSLYLQMNSLRAEDTALYYCAKDIQYGNYYYGMDVWGQGTTVTVSSASTKGPSVFPCAPSSKSTSGGTAALGCLVKDYFPEPVTVSWNSGALTSGVHTFPAVLQSSGLYSLSSVVTVPSSSLGTQTYICNVNHKPSNTKVDKKVEPKSSDKTHTCPPCPAPEAAGGPSVFLFPPKPKDTLMISRTPEVTCVVVDVSHEDPEVKFNWYVDGVEVHNAKTKPREEQYNSTYRVVSVLTVLHQDWLNGKEYKCKVSNKALPAPIEKTISKAKGQPREPQVYTLPPSREEMTKNQVSLTCLVKGFYPSDIAVEWESNGQPENNYKTDDDVLDSDGSFFLYSKLTVDKSRWQQGNVFSCSVMHEALHNHYTQKSLSLSPGK
light 1: not shown
heavy 2: EVQLVESGGGLVQPGGSLKLSCAASGFTFNTYAMNWVRQAPGKGLEWVARIRSKYNNYATYYADSVKDRFTISRDDSKNTAYLQMNNLKTEDTAMYYCVRHGNFGNSYVSWFAYWGQGTLVTVSSASTKGPSVFPLAPSSKSTSGGTAALGCLVKDYFPEPVTVSWNSGALTSGVHTFPAVLQSSGLYSLSSVVTVPSSSLGTQTYICNVNHKPSNTKVDKKVEPKSCDKTHTCPPCPAPEAAGGPSVFLFPPKPKDTLMISRTPEVTCVVVDVSHEDPEVKFNWYVDGVEVHNAKTKPREEQYNSTYRVVSVLTVLHQDWLNGKEYKCKVSNKALPAPIEKTISKAKGQPREPQVYTLPPSRDELTKNQVSLTCLVKGFYPSDIAVEWESNGQPENNYKTTKKKLDSDGSFFLYSKLTVDKSRWQQGNVFSCSVMHEALHNHYTQKSLSLSPGK
light 2: DIQMTQEPSLTTSPGGTVTLTCRSSTGAVTTSNYANWVQEKPGQAPRGLIGGTNKRAPGTPARFSGSLIGGKAALTITGVQPEDEAIYFCALWYSNLWVFGGGTKLEIKRTVAAPSVFIFPPSDEQLKSGTASVVCLLNNFYPREAKVQWKVDNALQSGNSQESVTEQDSKDSTYSLSSTLTLSKADYEKHKVYACEVTHQGLSSPVTKSFNRGEC
notes: Four-chain IgG-like bispecific antibody with a heterodimeric Fc; The anti-CD20 arm is derived from Ofatumumab; the anti-CD3 arm is a humanized murine antibody without the N106T mutation; Expressed in HEK293 cells behind an IL-2 signal peptide supplied by the plasmid; also called CD20×CD3 bispecific antibody V1
Broadly, the EC50 is the midpoint of the concentration-response curve. As for B1, in assay [1], the “ADCC activity to kill target tumor cells (Raji and Daudi cells), EC50” value is 0.2 ng/mL; the “killing of Raji cells by hPBMCs (LDH release), EC50” value is 0.21 ng/mL. Besides, the half-maximal effective concentration (EC50) in assay [2] is 818 ng/mL.

B2: CD20×CD3 BsAb V2 (bispecific antibody, human IgG1, kappa, L234A L235A)
heavy 1: B1 heavy 1
light 1: not shown
heavy 2: B1 heavy 2 with N106T
light 2: B1 light 2
notes: also called CD20×CD3 bispecific antibody V2
Consider B2, for which, in assay [1], the “ADCC activity to kill target tumor cells (Raji and Daudi cells), EC50” value was 0.2 ng/mL; the “killing of Raji cells by hPBMCs (LDH release), EC50” value is 0.24 ng/mL. Moreover, in assay [2], the EC50 worked out at 2100 ng/mL.
